Experimental data as given in US20260008839A1 (BRIGHAM AND WOMEN S HOSPITAL, published 2026).
Blank lines part the entries; values can stand above or below the molecule they belong to.

Legend:
[1] = molecular target: Dll4; assay: flow cytometry: recombinant NOTCH1-Fc + PE anti-IgG Fc on DLL4-expressing Cf2Th cells pre-treated with control IgG
[2] = molecular target: Dll4; assay: flow cytometry: recombinant NOTCH1-Fc + PE anti-IgG Fc on DLL4-expressing Cf2Th cells pre-treated with control IgG; gate PE+
[3] = molecular target: Dll4; assay: flow cytometry: recombinant NOTCH1-Fc + PE anti-IgG Fc on DLL4-expressing HEK293T cells pre-treated with control IgG; gate PE+
[4] = molecular target: T1, human DLL4 (human, UniProt Q9NR61 27-529, limits assumed); assay: SPR Biacore 3000, antibody captured on anti-rat Fc (161 RU), scouting at 100 nM analyte
T1 construct: also called Hu.DLL4; HuDLL4
T1 sequence (Q9NR61 27-529 limits assumed): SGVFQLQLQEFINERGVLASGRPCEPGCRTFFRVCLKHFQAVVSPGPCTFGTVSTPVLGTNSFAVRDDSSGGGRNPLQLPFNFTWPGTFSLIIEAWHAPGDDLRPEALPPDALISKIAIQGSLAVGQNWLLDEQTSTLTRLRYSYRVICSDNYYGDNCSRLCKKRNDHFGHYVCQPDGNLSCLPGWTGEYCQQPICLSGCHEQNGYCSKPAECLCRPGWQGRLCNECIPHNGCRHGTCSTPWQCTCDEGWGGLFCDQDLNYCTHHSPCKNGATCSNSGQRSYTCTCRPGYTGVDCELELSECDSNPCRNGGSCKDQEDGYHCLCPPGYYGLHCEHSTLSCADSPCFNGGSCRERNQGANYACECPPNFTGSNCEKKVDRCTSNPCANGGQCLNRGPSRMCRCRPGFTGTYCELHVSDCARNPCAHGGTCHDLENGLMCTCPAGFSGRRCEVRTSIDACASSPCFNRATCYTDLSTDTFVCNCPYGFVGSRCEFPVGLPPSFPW
Procedure: (§1) Binding experiments were performed on Biacore 3000 at 25° C. Flow cell 2, 3 and 4 of the CM5 chip were coated with the goat anti-rat Fc Capture Ab using EDC/NHS the amine coupling method as per GE manufacturer's instruction. The unoccupied sites were blocked with 1M ethanolamine. Three test antibodies were captured at an RU as indicated on flow cell 2, 3 and 4. Ag was flowed over the chip. Binding of antigen to the antibodies was monitored in real time. From the observed kₒₙ and koff, KD was determined. For the interactions with fast off rate, steady state kinetics was used to determine KD.
(§2) Scouting analysis was performed using a single analyte concentration of 100 nM. At this concentration, binding should be observed even if the ligand binding affinity is weak. Flow cell 1 response was used for reference subtraction.

[5] = molecular target: T2, porcine DLL4 (porcine, UniProt A0A4X1URL1 27-529); assay: SPR Biacore 3000, antibody captured on anti-rat Fc (130 RU), full kinetics, analyte 0-200 nM
T2 construct: Construct not described (pig DLL4 ECD is named only for hybridoma screening); also called pig DLL4; porcine DDL4
T2 sequence (A0A4X1URL1 entry or part of it): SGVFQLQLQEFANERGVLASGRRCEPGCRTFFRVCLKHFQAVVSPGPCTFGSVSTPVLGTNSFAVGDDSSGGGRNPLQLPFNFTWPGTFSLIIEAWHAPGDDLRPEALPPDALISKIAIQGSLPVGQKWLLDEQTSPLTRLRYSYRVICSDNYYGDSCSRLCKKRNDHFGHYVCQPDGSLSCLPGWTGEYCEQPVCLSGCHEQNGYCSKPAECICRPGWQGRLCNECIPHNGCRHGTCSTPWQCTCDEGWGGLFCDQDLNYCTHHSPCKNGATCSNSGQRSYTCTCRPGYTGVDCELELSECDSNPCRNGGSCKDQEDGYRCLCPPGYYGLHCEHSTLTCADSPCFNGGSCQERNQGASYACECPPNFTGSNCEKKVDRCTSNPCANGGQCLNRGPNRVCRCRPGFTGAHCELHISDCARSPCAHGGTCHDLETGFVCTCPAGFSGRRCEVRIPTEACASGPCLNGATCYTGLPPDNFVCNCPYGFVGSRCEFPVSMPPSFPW
Procedure: as §1

[6] = molecular target: T2, porcine DLL4; assay: SPR Biacore 3000, antibody captured on anti-rat Fc (75 RU), scouting at 20 nM and 100 nM analyte
[7] = molecular target: T3, human DLL1 (human, UniProt O00548 18-545, limits assumed); assay: SPR Biacore 3000, antibody captured on anti-rat Fc (161 RU), scouting
T3 construct: Construct not described; also called Hu.DLL1
T3 sequence (looked up): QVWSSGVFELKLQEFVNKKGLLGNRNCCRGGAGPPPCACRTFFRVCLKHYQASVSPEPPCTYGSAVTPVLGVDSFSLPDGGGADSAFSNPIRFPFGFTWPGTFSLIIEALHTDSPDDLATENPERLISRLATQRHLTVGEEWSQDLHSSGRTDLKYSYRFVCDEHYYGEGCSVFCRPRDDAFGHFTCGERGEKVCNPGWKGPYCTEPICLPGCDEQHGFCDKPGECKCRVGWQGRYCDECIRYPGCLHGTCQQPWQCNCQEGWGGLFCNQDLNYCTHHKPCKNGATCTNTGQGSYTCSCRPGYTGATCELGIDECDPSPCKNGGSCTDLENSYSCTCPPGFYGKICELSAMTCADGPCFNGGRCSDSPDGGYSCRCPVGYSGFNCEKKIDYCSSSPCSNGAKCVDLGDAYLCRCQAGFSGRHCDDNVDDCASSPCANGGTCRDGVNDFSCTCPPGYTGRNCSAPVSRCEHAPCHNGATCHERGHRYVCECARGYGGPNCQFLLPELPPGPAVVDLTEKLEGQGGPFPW
Procedure: as §1, §2

[8] = molecular target: T2, porcine DLL4; assay: SPR Biacore 3000, antibody captured on anti-rat Fc (80 RU), scouting at 20 nM and 100 nM analyte
Procedure: as §1

[9] = molecular target: T3, human DLL1; assay: head of the antibody's table; assay not named
[10] = molecular target: T1, human DLL4; assay: SPR Biacore 3000, antibody captured on anti-rat Fc (170 RU), scouting at 100 nM analyte
Procedure: as §1, §2

[11] = molecular target: T1, human DLL4; assay: SPR Biacore 3000, full kinetics, against 8D2 as reference
Procedure: as §1

[12] = molecular target: T2, porcine DLL4; assay: SPR Biacore 3000, antibody captured on anti-rat Fc (80 RU), full kinetics, analyte 0-50 nM
Procedure: as §1

[13] = molecular target: T1, human DLL4; assay: SPR Biacore 3000, antibody captured on anti-rat Fc (90 RU), full kinetics, analyte 0-25 nM
Procedure: as §1

[14] = molecular target: T1, human DLL4; assay: head of the antibody's table; summary bound, assay and unit not named there
[15] = molecular target: T2, porcine DLL4; assay: SPR Biacore 3000, antibody captured on anti-rat Fc (110 RU), full kinetics, analyte 0-50 nM
Procedure: as §1

[16] = molecular target: T3, human DLL1; assay: SPR Biacore 3000, antibody captured on anti-rat Fc (220 RU), scouting
Procedure: as §1, §2

[17] = molecular target: T1, human DLL4; assay: SPR Biacore 3000, antibody captured on anti-rat Fc (220 RU), scouting at 100 nM analyte
Procedure: as §1, §2

[18] = molecular target: T1, human DLL4; assay: SPR Biacore 3000, antibody captured on anti-rat Fc (140 RU), full kinetics, analyte 0-12.5 nM
Procedure: as §1

Chain of Dll4 (chain, as listed by the source limits assumed): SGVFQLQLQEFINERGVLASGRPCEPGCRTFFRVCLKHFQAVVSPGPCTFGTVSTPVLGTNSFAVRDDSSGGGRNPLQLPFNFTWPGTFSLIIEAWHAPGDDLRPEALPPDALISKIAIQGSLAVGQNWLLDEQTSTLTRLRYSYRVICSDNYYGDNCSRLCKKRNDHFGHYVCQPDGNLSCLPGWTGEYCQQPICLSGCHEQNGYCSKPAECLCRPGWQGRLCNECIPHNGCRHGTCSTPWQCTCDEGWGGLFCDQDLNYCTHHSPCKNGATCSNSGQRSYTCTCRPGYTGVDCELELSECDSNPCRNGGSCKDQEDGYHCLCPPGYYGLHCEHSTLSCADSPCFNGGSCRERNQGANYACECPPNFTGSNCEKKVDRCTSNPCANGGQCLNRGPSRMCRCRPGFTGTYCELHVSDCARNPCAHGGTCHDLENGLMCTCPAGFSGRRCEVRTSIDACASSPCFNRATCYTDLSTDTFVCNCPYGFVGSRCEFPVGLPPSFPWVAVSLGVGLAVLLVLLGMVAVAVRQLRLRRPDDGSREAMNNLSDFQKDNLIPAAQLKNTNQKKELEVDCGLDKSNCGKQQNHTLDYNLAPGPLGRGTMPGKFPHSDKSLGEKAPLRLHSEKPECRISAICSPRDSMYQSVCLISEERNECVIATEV

PE positive cells (%) [1]: 16.8% | PE positive cells (%) [2]: 11% | PE positive cells (%) [3]: 9.6%
Molecule: NOTCH1-Fc (Fc fusion)

Kd [4]: 88.6 nM | koff [4]: 0.00109 s⁻¹ | kon [4]: 12400 M⁻¹ s⁻¹ | Kd [5]: 9370 nM | koff [5]: 0.00276 s⁻¹ | kon [5]: 295 M⁻¹ s⁻¹ | Kd [6]: 1240 nM | koff [6]: 0.00345 s⁻¹ | kon [6]: 2790 M⁻¹ s⁻¹ | binding result [7]: no binding (tested: 100 nM)
B1: Monoclonal Antibody 2H10 (antibody, V domains shown)
VH: QVQVKESGPGLVQPSQTLSLTCIVSGFSLSSYHVSWVRQPPGKSLVWMGTIWAGGGTNYNSAVQSRLSISRDTSKSQVFLKVNSLQPEDTGTYYCARHYYDGYYHGPYFDYWGQGVMVTV
VL: SPASLSASLGETVTFECRASEDIYTNLAWYQQKPGNSPQLLIYDANTLADGVPSRFSGSGSGTQFSLKINSLQSEDVASYFCQQYDSYPWTFGGGTKLELRR
notes: Rat hybridoma monoclonal antibody, IgG type (captured by goat anti-rat Fc); also called BMH-2H10-A7

Kd [8]: 15.4 nM | koff [8]: 0.00162 s⁻¹ | kon [8]: 106000 M⁻¹ s⁻¹ | binding result [9]: no binding | Kd [10]: 3.68 nM | koff [10]: 0.000505 s⁻¹ | kon [10]: 137000 M⁻¹ s⁻¹ | fold higher affinity than 8D2 [11]: ~10 fold | fold lower off rate than 8D2 [11]: 4 fold | Kd [12]: 7.07 nM | koff [12]: 0.00198 s⁻¹ | kon [12]: 281000 M⁻¹ s⁻¹ | Kd [13]: 0.343 nM | koff [13]: 0.000439 s⁻¹ | kon [13]: 1.28e+06 M⁻¹ s⁻¹ | kon [14]: > 500000 M⁻¹ s⁻¹
B2: Monoclonal Antibody 8C2 (antibody, V domains shown)
VH: QVQLKESGPGLVQPSQTLSLTCTVSGISISIYGVSWVRQPPGKGLEWMGGIWGDGSTDYNSALKSRLSLSRDTSKSQVFLKMNSLQTEDTAIYFCTLSGDFDYWGHGVLVTVSS
VL: DIQLTQSPASLSASLDEIVTITCQASLDIGNWLAWYQQKTGKSPQLLIYGATSLAGGVPSRFSGSRSGTQYSLKISKLQVEDTGIYYCLQHYRAPFTFGSGTKLEI
notes: Rat hybridoma monoclonal antibody, IgG type (captured by goat anti-rat Fc); also called BMH-8C2-D10; BMH-8C2-D4

Kd [15]: 7.21 nM | koff [15]: 0.00182 s⁻¹ | kon [15]: 253000 M⁻¹ s⁻¹ | Kd [8]: 9.95 nM | koff [8]: 0.00171 s⁻¹ | kon [8]: 172000 M⁻¹ s⁻¹ | binding result [16]: no binding (tested: 100 nM) | Kd [17]: 2.27 nM | koff [17]: 0.00108 s⁻¹ | kon [17]: 474000 M⁻¹ s⁻¹ | Kd [18]: 2.12 nM | koff [18]: 0.00161 s⁻¹ | kon [18]: 759000 M⁻¹ s⁻¹
B3: Monoclonal Antibody 8D2 (antibody, V domains shown)
VH: SGGGLVQPGRSMKLSCAASGFTFSNYDMAWVRQDPKKGLEWVATISYDGRSTYYRDSVKGRFTISRDNAKSTLYLQMDSLRSEDTATYYCKDYDGHYHPYGMEAWGQGISVTVSS
VL: DIVLTQSPALAVTLGQRATISCRASQSVTISNYNLMQWYQQRPGRQPKLLIYDASNLASGIPARFSGSGSGTDFTLTIDPVQADDIATYYCQQSRDDPRTFGGGTKLELR
notes: Rat hybridoma monoclonal antibody, IgG type (captured by goat anti-rat Fc); also called BMH-8D2-D10; rat 8D2
